Target: Recombinant histidine-tagged human WRN (human) (UniProt Q14191)
Sequence (Q14191 whole entry): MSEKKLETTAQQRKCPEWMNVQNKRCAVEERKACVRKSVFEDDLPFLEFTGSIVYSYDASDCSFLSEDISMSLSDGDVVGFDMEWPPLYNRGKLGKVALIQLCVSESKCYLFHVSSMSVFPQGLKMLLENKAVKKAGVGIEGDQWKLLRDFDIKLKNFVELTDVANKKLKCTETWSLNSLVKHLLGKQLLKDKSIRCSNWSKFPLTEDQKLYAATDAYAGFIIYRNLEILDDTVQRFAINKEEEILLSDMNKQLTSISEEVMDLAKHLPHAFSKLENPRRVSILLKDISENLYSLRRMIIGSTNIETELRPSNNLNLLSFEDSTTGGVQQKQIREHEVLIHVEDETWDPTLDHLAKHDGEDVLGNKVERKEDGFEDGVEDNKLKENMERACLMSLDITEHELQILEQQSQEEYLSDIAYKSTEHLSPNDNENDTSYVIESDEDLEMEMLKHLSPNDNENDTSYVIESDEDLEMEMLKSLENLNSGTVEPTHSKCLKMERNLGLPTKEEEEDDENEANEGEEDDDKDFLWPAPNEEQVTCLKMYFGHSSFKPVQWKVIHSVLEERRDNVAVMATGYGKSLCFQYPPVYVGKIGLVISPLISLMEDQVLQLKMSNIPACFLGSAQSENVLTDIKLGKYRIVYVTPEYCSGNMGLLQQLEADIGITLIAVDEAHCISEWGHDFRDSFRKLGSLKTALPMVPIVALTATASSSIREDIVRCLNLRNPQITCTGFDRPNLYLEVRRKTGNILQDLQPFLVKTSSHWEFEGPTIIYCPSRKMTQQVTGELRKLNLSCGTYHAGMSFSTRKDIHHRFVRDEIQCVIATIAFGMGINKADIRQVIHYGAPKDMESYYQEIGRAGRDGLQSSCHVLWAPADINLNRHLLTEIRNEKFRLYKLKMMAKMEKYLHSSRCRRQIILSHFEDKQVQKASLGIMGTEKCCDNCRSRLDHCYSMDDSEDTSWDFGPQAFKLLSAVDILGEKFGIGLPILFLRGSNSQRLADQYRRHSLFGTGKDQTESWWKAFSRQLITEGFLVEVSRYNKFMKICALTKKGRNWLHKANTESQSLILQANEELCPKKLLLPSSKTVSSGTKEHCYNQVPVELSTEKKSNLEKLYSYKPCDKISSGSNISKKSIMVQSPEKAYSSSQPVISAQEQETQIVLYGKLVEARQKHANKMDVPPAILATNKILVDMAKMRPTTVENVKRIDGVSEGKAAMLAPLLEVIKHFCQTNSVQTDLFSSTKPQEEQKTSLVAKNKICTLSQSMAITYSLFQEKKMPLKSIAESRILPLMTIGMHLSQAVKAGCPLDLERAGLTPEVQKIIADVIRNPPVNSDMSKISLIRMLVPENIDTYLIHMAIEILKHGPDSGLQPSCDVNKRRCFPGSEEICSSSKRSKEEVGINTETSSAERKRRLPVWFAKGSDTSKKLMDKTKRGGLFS

recombinant human p300 (histone acetyltransferase enzyme p300), Q09472 1-2414
WRN helicase activity on a 22 bp forked duplex with p300 in the absence of acetyl CoA, at the highest WRN concentration: 2 fold

Source: publication PMC2276247
